Assay results: publication PMC11969024 (2025)

B1: peptide HD2 (from tick evasin EVA4) / CCL8 (biotinylated, synthetic) (parent complex)
chain 1: EEDDYTAYAPLTCYFT
chain 2: QPDSVSIPITCCFNVINRKIPIQRLESYTRITNIQCPKEAVIFKTKRGKEVCADPKERWVRDSMKHLDQIFQNLKP
B2: peptide HD2 (from tick evasin EVA4) / CCL17 (biotinylated, synthetic) (parent complex)
chain 1: EEDDYTAYAPLTCYFT
chain 2: ARGTNVGRECCLEYFKGAIPLRKLKTWYQTSEDCSRDAIVFVTVQGRAICSDPNNKRVKNAVKYLQSLERS

Variants of: B1

Variant	enrichment
chain 1 D4G	-2.42 log2 (difference from the parental peptide)
chain 1 D4R	-6.61 log2 (difference from the parental peptide)
chain 1 D4S	-2.5 log2 (difference from the parental peptide)
chain 1 D4N	-2.35 log2 (difference from the parental peptide)
chain 1 D4P	-4.27 log2 (difference from the parental peptide)
chain 1 T12D	-1.11 log2 (difference from the parental peptide)
chain 1 T12H	-0.0146 log2 (difference from the parental peptide)
chain 1 T12A	-0.122 log2 (difference from the parental peptide)
chain 1 A9N	-3.86 log2 (difference from the parental peptide)
chain 1 A7S	0.947 log2 (difference from the parental peptide)
chain 1 A7E	2.43 log2 (difference from the parental peptide)
chain 1 Y14R	-0.632 log2 (difference from the parental peptide)
chain 1 Y8D	-7.06 log2 (difference from the parental peptide)
chain 1 F15P	2.45 log2 (difference from the parental peptide)
chain 1 F15W	0.273 log2 (difference from the parental peptide)
chain 1 P10R	-7.6 log2 (difference from the parental peptide)
chain 1 P10D	-7.93 log2 (difference from the parental peptide)
chain 1 L11E	0.712 log2 (difference from the parental peptide)

Variant	enrichment
chain 1 L11W	-0.601 log2 (difference from the parental peptide)
chain 1 D3W	-2.86 log2 (difference from the parental peptide)
chain 1 D3F	-2.94 log2 (difference from the parental peptide)
chain 1 D3V	-3.08 log2 (difference from the parental peptide)
chain 1 T6Q	1.13 log2 (difference from the parental peptide)
chain 1 T6I	-5.53 log2 (difference from the parental peptide)
chain 1 T6N	0.795 log2 (difference from the parental peptide)
chain 1 E2P	-2.32 log2 (difference from the parental peptide)
chain 1 E2S	-1.97 log2 (difference from the parental peptide)
chain 1 E2T	-1.89 log2 (difference from the parental peptide)
chain 1 C13H	-2.17 log2 (difference from the parental peptide)
chain 1 C13W	-1.28 log2 (difference from the parental peptide)
chain 1 C13N	-3.72 log2 (difference from the parental peptide)
chain 1 Y5S	-5.16 log2 (difference from the parental peptide)
chain 1 Y5M	-0.636 log2 (difference from the parental peptide)
chain 1 Y5L	-0.265 log2 (difference from the parental peptide)
chain 1 E1R	-2.91 log2 (difference from the parental peptide)

Variants of: B2

Variant	enrichment
chain 1 A9E	-1.38 log2 (difference from the parental peptide)
chain 1 A9G	-7.21 log2 (difference from the parental peptide)
chain 1 A9Y	-8.18 log2 (difference from the parental peptide)
chain 1 A9W	-4.5 log2 (difference from the parental peptide)
chain 1 A9V	-9.17 log2 (difference from the parental peptide)
chain 1 T16G	0.943 log2 (difference from the parental peptide)
chain 1 T16M	0.118 log2 (difference from the parental peptide)
chain 1 T16S	0.663 log2 (difference from the parental peptide)
chain 1 T16V	-0.108 log2 (difference from the parental peptide)
chain 1 T16P	1.33 log2 (difference from the parental peptide)
chain 1 T16R	-1.43 log2 (difference from the parental peptide)
chain 1 T16C	-5.46 log2 (difference from the parental peptide)
chain 1 T16A	1.13 log2 (difference from the parental peptide)
chain 1 L11D	-9.19 log2 (difference from the parental peptide)
chain 1 L11E	-4.46 log2 (difference from the parental peptide)
chain 1 L11K	2.96 log2 (difference from the parental peptide)
chain 1 L11N	-6.23 log2 (difference from the parental peptide)
chain 1 L11W	-0.813 log2 (difference from the parental peptide)
chain 1 L11A	-1.12 log2 (difference from the parental peptide)
chain 1 A7N	2.1 log2 (difference from the parental peptide)
chain 1 A7D	0.474 log2 (difference from the parental peptide)
chain 1 A7M	1.3 log2 (difference from the parental peptide)
chain 1 A7G	2.15 log2 (difference from the parental peptide)

Variant	enrichment
chain 1 A7F	-3.04 log2 (difference from the parental peptide)
chain 1 A7E	-0.527 log2 (difference from the parental peptide)
chain 1 A7S	0.977 log2 (difference from the parental peptide)
chain 1 Y5M	-3.16 log2 (difference from the parental peptide)
chain 1 Y5G	-7.21 log2 (difference from the parental peptide)
chain 1 Y5I	-6.15 log2 (difference from the parental peptide)
chain 1 Y5S	-7.62 log2 (difference from the parental peptide)
chain 1 Y5F	-2.8 log2 (difference from the parental peptide)
chain 1 Y5W	0.266 log2 (difference from the parental peptide)
chain 1 C13M	-2.5 log2 (difference from the parental peptide)
chain 1 C13Q	-6.89 log2 (difference from the parental peptide)
chain 1 C13S	-8.83 log2 (difference from the parental peptide)
chain 1 C13F	-5.92 log2 (difference from the parental peptide)
chain 1 C13T	-5.42 log2 (difference from the parental peptide)
chain 1 C13N	-8.31 log2 (difference from the parental peptide)
chain 1 C13V	-2.69 log2 (difference from the parental peptide)
chain 1 Y8L	-8.14 log2 (difference from the parental peptide)
chain 1 Y8C	-9.78 log2 (difference from the parental peptide)
chain 1 Y8V	-8.87 log2 (difference from the parental peptide)
chain 1 Y8F	0.399 log2 (difference from the parental peptide)
chain 1 Y8W	-3.5 log2 (difference from the parental peptide)
chain 1 Y8H	-5.35 log2 (difference from the parental peptide)
chain 1 F15M	0.0931 log2 (difference from the parental peptide)

Variant	enrichment
chain 1 F15Q	-0.329 log2 (difference from the parental peptide)
chain 1 F15L	0.236 log2 (difference from the parental peptide)
chain 1 F15N	-1.55 log2 (difference from the parental peptide)
chain 1 F15T	0.347 log2 (difference from the parental peptide)
chain 1 F15R	0.0833 log2 (difference from the parental peptide)
chain 1 F15V	1.08 log2 (difference from the parental peptide)
chain 1 F15P	1.23 log2 (difference from the parental peptide)
chain 1 F15Y	2.54 log2 (difference from the parental peptide)
chain 1 F15H	0.105 log2 (difference from the parental peptide)
chain 1 F15A	0.597 log2 (difference from the parental peptide)
chain 1 F15G	-3.49 log2 (difference from the parental peptide)
chain 1 F15K	0.71 log2 (difference from the parental peptide)
chain 1 E2S	-1.29 log2 (difference from the parental peptide)
chain 1 E2N	-1.61 log2 (difference from the parental peptide)
chain 1 E2K	-0.857 log2 (difference from the parental peptide)
chain 1 E2M	-1.82 log2 (difference from the parental peptide)
chain 1 E2D	1.45 log2 (difference from the parental peptide)
chain 1 E2H	-1.27 log2 (difference from the parental peptide)
chain 1 E2T	-2.14 log2 (difference from the parental peptide)
chain 1 E2W	-2.45 log2 (difference from the parental peptide)
chain 1 T12M	1.75 log2 (difference from the parental peptide)
chain 1 T12K	-2.78 log2 (difference from the parental peptide)
chain 1 T12G	-10.4 log2 (difference from the parental peptide)

Variant	enrichment
chain 1 T12P	-4.02 log2 (difference from the parental peptide)
chain 1 T12D	-7.76 log2 (difference from the parental peptide)
chain 1 T12S	-3.76 log2 (difference from the parental peptide)
chain 1 T12I	0.0487 log2 (difference from the parental peptide)
chain 1 T12Q	-1.6 log2 (difference from the parental peptide)
chain 1 T12Y	-0.855 log2 (difference from the parental peptide)
chain 1 T12H	-2.06 log2 (difference from the parental peptide)
chain 1 T12N	-3.22 log2 (difference from the parental peptide)
chain 1 D4M	-3.6 log2 (difference from the parental peptide)
chain 1 D4N	-3.02 log2 (difference from the parental peptide)
chain 1 D4S	-4.05 log2 (difference from the parental peptide)
chain 1 D4R	-4.61 log2 (difference from the parental peptide)
chain 1 D4I	-4.19 log2 (difference from the parental peptide)
chain 1 D4P	-2.13 log2 (difference from the parental peptide)
chain 1 D4V	-7.15 log2 (difference from the parental peptide)
chain 1 D4F	-6.96 log2 (difference from the parental peptide)
chain 1 D4K	-4.98 log2 (difference from the parental peptide)
chain 1 E1V	-0.847 log2 (difference from the parental peptide)
chain 1 E1A	0.0959 log2 (difference from the parental peptide)
chain 1 E1M	0.0225 log2 (difference from the parental peptide)
chain 1 E1N	0.681 log2 (difference from the parental peptide)
chain 1 E1I	-0.523 log2 (difference from the parental peptide)
chain 1 E1L	-0.975 log2 (difference from the parental peptide)

Variant	enrichment
chain 1 E1D	2.62 log2 (difference from the parental peptide)
chain 1 P10W	-5.95 log2 (difference from the parental peptide)
chain 1 P10A	-8.82 log2 (difference from the parental peptide)
chain 1 P10D	-8.51 log2 (difference from the parental peptide)
chain 1 P10E	-6.42 log2 (difference from the parental peptide)
chain 1 P10G	-9.32 log2 (difference from the parental peptide)
chain 1 Y14C	-7.42 log2 (difference from the parental peptide)
chain 1 Y14T	-3.79 log2 (difference from the parental peptide)
chain 1 Y14L	-4.61 log2 (difference from the parental peptide)
chain 1 D3L	-4.35 log2 (difference from the parental peptide)
chain 1 D3E	0.618 log2 (difference from the parental peptide)
chain 1 D3H	-2.9 log2 (difference from the parental peptide)
chain 1 D3F	-5.06 log2 (difference from the parental peptide)
chain 1 D3A	-2.38 log2 (difference from the parental peptide)
chain 1 D3Y	-3.2 log2 (difference from the parental peptide)
chain 1 D3T	-2.29 log2 (difference from the parental peptide)
chain 1 T6V	-4.25 log2 (difference from the parental peptide)
chain 1 T6L	-1.57 log2 (difference from the parental peptide)
chain 1 T6P	-4.51 log2 (difference from the parental peptide)
chain 1 T6Y	0.0769 log2 (difference from the parental peptide)
chain 1 T6H	0.317 log2 (difference from the parental peptide)
chain 1 T6A	1.8 log2 (difference from the parental peptide)
chain 1 T6R	0.942 log2 (difference from the parental peptide)
